Measurements taken from the nanobody polyreactivity screen of Harvey et al. (2022).

Assay: yeast display, Sf9 membrane polyspecificity reagent, FACS + sequencing; frameworks hold sequencing errors
How it was run: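 Polyreactivity labels are assigned by the sorting gate from which each nanobody was recovered. The gates were low and high (top ~1%), set on anti-HA fluorescence for expression and streptavidin fluorescence for reagent binding. Before sorting, galactose-induced (36–48 hours) yeast display cells were stained for 1 hour at 4 °C with 10% biotinylated, detergent-solubilized Sf9 membrane reagent.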

Sequence	polyreactivity (PSR sort gate)
QVQLVESGGGLVQAGGSLRLSCAASGSTFYINAMGWYRQAPGKERVLVAAISWSGGSTYYADSVKGRFTISRDNAKNTVYLQMNSLKPEDTAVYYCAADWYLGWSLDYDYWGQGTQVTVSS	low polyreactivity
QVPLVESGGGLVQAGGSLRLSCAASGSTFYTYAMGWYRQAPGKERELVATISRGGGRTYYADSVKGRFTISRDNAKYTVYLQMISLKPEDTAVYYCAARLYSSSYNSEQYYYWGQGTQVTVSS	high polyreactivity
QVQLVESGGGLVQAGGSLRLICAASGRTFRHNAMGWYRQAPGKERELVAAISSSGTNTHYADSVKGRFTISRDNAQNTVYLQMNSLKPEDTAVYYCAADRWGARRKQYHENGYWGQGTQVTVSS	high polyreactivity
QVQLVESGGGLVQAGGSLRLSCAASGNIFATYAMGWYRQAPGKESELVAAITSSGGRTYYADSVKGRFTISRDNAKISVYLQMNSLKPEDTAVYNCNAVYSLYYTRYNYWGHGTQVTVSS	high polyreactivity
QVQLVESGGGLVQEGGSLRLSCAASGSIFSIYAMGWYRQAPGKERELVAAIDSGTSTTYADSVKGRFTISRDNAKNTVYLQMNSLKPEDTAVYYCAAALYSDVAAVATYGYYWGQGTQVTVSS	low polyreactivity
QVQLVESGGGLVHAGGSLRLSCAASGSIFVPYALGWYRQAPGKDRELVAAMTSSGSSTYYADSVKGRFTISRDNAKNTVYLQMNSLKPDDTAGYYCAADYFDWEGNGYYYWGQGNQVTVSS	high polyreactivity
QVQLVESRGGLVQAGGSLRLSCAASGSTSYIYVMGWYRQAPGKERELVATISKNGGDTYADSVKGRFTISRDNAKNTVYLQMNSLKPEDTAVYYCYARAYLYNRRISSRYNYWGQGTQVTVSS	high polyreactivity
QVHLVESGGGLVQAGGSLRLTCAASGFTYPGNAMGWYRQAPGKERELVATINWSGTSTYYADSVKGRFTISRDYAKNTVYLQMNSLKPEDTAVYYCAVDTGGPGYRFDYWGQGTQVTVSS	high polyreactivity
QVHLVESGGGLVQAGGSLRLSCAASGSTFRYYAMGWYRQAPGKERELVAAIRDSGGSTYYADSVKGRFTISRDNAKNTVYLQMNSLKPEDTAVYYCARRAYRWYSAYDSWGQGTQVTVSS	high polyreactivity
QVQIVESGGGLVHAGGSLRLSCAASGRIFPDYAMGWYRQAPGKERELVATISYSGGNTNYADSVKGRFTISRDNAKNTVYLQMNSLKPEDTAVYYCNTDWYLPRYVLLGYFSGTEDYWGQGTQVTVSS	low polyreactivity
EVQLVESGGGLVQAGGSLRLSCAASGFTFGVYARGWYRQAPGKERELVAAITWGDGSTYYADSVKGRFTISRDNAKNTVYLQMNSLKPEDTAVYYCNAVTRRHKYYYWGQGTQVTVSS	high polyreactivity
QVQLVESGGGLVQAGGSLRLSSAASGFTFNANAMGWYRQAPGKERELVAVITRSGGRTYYADSVKGRFTISRDNAKNTVYLQMNSLKPEDTAVYYCAADIGYTYEYYYWGQGTQVTVSS	high polyreactivity
QVQLVESGGGLVQAGGSLRLSCAASGITFRQYAMGWYRQAPGKERELVAVITSRGGTTYYADSVKGRFTISRDNAKNTVYLQMNSLKPEDTAVYYCAKVYGFPYYRAYFPERRNGYWGQGTQVTVSS	high polyreactivity
QVQLVESVGGLVQAGGSLRLSCAASGFIFSVYAMGWNRQAPGKERELVAVISTSGGRTYYADSVKGRFTISRDNAKNTVYLQMNSLKPEDTAVDYCAADGFQYTLGNYYWGQGTQVTLSS	high polyreactivity
QVQLVESGGGLVQAGGSLRLSCAASGSTFYSYAMGWYRQAPGKERELVAAITYSDGDTYYADSVKGRFTISRDNAKNTVYLQMNSLKPEDTAVYYCAAEYQGQPGTGNLEYWGQGTQVTVSS	low polyreactivity
QVQHVESRGGLVQAGGSLRLSCAASGSTIISNAQGWYRLAPGKERELVASIRSSGSTNYADSVKGRFTISRDNAKNTVYLKMNSLKPEDTAVYYCAAGSYWVQFQYDYWGQGTQVTVSS	low polyreactivity
QVQLVESGGGLVQAGGSLRLSCADSGRTIRGNAMGWYRQAPGKERELVAAITSSGGGTYYADSVKGRFTISRDNAKNTVYLQMNSLNPEDTAVFYGAAEYRDGYRFSYDYWGQGTQVTVSS	low polyreactivity
QDQLVESCGGLVQAGGSLRLSCAASGGIINGYTMGWYRQAPGKETDLVAAITGSGGSTYYADSVKGRYTISRDNAKNTVYLQMNSLKPEETAVYYCARDYHARPNCPRSDDYDYWGQGTQVTVSS	low polyreactivity
QVQLVESGGGLVQAGGSLRLSCAASGRTFYRNAMGWYRQAPGKERELVAGITRGGRTYYADSVKGRFTISRDNAKNTVYLQMNSLKPEDTAVYYCAKGRSWQIYYKGGIKGGYWGQGTQVTVSS	low polyreactivity
QVQLVESGGGLVQAGGSLRLSCAASGSIFKPYAMGWSRQAPGKERELVAAISRSGSTYYADSVKGRFTISRDNAKNTVYLQMNSLKPEDTAVYYCAKDVRPNYYAAFNYWGQGTQVTVSS	low polyreactivity
QVQLVESGGGLVQAGGSLRLSCDASGLTFHRYAMGWYRQAPGKERELVAAINYSGGRTYYADSVKGRFTISRDNAKNTFYLQMNSLKPEDTAVYYCAAPRASGYFWGQGTQLTVSS	high polyreactivity

Sequence	polyreactivity (PSR sort gate)
QVQLVESGGGLVQAGGSLRLSCAASGSIFLPYAMVWSRQAPGTERELVAAITWGGDSTYADSVKGRFTISRDNAKNTVYLQMNSLKPEDTAVYYCAAGAGFESDYWGQGTQVTVSS	low polyreactivity
QVQLQDSGGGLVQAGGSLRLSCAASGTISYRYRMGWYRQAPRKEVELVAGIRVGSITYDADSVKGRFTISRDNAKNTVYLQMNSLKPEDIAVYYCAVYQKSYRFFPYWGQGTQVTVSS	high polyreactivity
QVQLVESGGGLVQAGGSLRLSCAASGSTFLDNAMGWYRQAPGKERELVAVITASDTNTNYADSVKGRFTISRDNAKNTVYLQMNRLKPEDTAVYYCNADATYTSYDYWGQGTQVTVSS	low polyreactivity
QVQLVESGGGLVQAGGSLRLSCAASGGTGARNAMGWYRQAPGKERELVATITRRAGTTYYADSVKGRFTISRDNAKNTVYLQMNSLKPEDTAVYYCARVATWGYYPYLIPEVGYDYWGQGTQVTVSS	high polyreactivity
QVQLVESGGGLVQEGGSLRLICAASGSILGSNAMGWYRQAPGKEREFVAAITWTGGSTYYADSVKGRFTISRDNAKNTVYLQMNSLKREDTAVYYCAKDVKYVKMDYWGQGTQVTVSS	low polyreactivity
QVQLVESGGGLVQAGGSLRLSCAASGLTFRAYAMGWYRLAPGKERELVAAITWSGTRTYYADSVKGRFTISRDNAKNTVYLQMNSLKPEDTAVYYCARGHTKVKYDYWGQGTQVTVSS	low polyreactivity
QVQLVESGGGLVQAGGSLRLSCAASGRIFPGYAMGWYRQAPGKERELVAAISKGGGSKYYADSVKGRFTISRDNAKNTVYLQMNSLKTEDTAVYYCAAQSYPRSYGLDYWGQGTQVTVSS	high polyreactivity
QVQLVESGGGLVQAGGSLRLSCPASGSTFWYYAMGWYRQAPGKERELVAAITRGGSTNYADSVKGRFTISRDNAKNTVYLQMNSLKPEDTAVYYCAKDGPQYRYYYWGQGTQVTVSS	high polyreactivity
QVQLVESGGGLVQAGGSLRLSCAASGIIFYSNAMGWARQAPGKETELVAGISKSGGSTYYADSVKGRFTISRDNAQNTVYLQMHSLKPEDTAVYYCAVRGGGRYRSWGYDYWGQGTQVTVSS	high polyreactivity
QVQLVESGGGLVQAGGSLRLSCAASGRTFGKNAMGWYRQAPGKERELVAAISWSGGRTYYADSVKGRFTISRDNAKNTVYLQMNSLKPEDTAVYYCATASYRNPSDYWGQGTQVTVSS	high polyreactivity
QVQLVESGGGLVQAGGSLRLSCAASGFIFSSYAMGWYRQAPGKERELVAVITRSGRRTYYADSVKGRFTISRDNAKNTVYLQMNSLKPEDTAVYYCNATLPNEVAPNDYWGQGTQVTVSS	high polyreactivity
QVQLEESGGGLVQAGGSLRLSCAASGRIFHVNAMGWYRPAPGKERELVAAISTSGGRTYYADSVKGRFTISRDNAKNTVYLQMNSLKPEDTAVYYCAKRWPLYVDPTRMDYWGQGTQVTVSS	high polyreactivity
QVQIEESGGGLVQAGGSLRLSCAASGFIFVWYAMGWYRQAPGKERELVAAISRDGDTNYADSVKGRFTISRDNAKNTVYLQMNSLKPEDTAVDYCARTYIYSGRIYNYGYWGQGTQVTVSS	high polyreactivity
QVQLVESGGGLVQAGGRLRLSCAASGSTFLVYAMGWYRQAPGKERELVAAIDSGVSTYYADSVKGLFTISRDNAKNTVYLQMNSLKPEDTAVYYCNGYDYWGQGTQVTVSS	low polyreactivity
QVQLVESGGGLVQAGGSLRLSCAASGSTFYSYAMGWYSQAPGKERELVARIRWSGYTYSADSVKGRFTISRDNAKNTVYLQMNSLKPEDTAVSYCAAKRGFHIADYWGQGTQVTVSS	high polyreactivity
QVQLVESGGGLVQAGGSLRLSCAASGGPFTYYTMGCYRQAPGKERELVAAISTGGRTYYADSVKGRFTISRDNAKNTVYLQMNCLKAEATAVYYCYPLYDETDVLGEFDYWGQGTQVTVSS	low polyreactivity
QVQLVDSGGGLVQAGGSLRLSCAASGSTFYWYPMGWYRQAPGKERELVAAISRSSGSTYYADSVKGRFTISRDNAKNTVYLQMNSLTPEDTAVYYCAADYYLRSFVWTAYDSWGHGTQVTVSS	high polyreactivity
QVQLVETGGGLVQAGGSLRLSCAASGITFWYYAMGCDRQAPGKERELVAVISRGGSTYYADSVKGRFTISRDNAKNTVYLQMNSLKPEDTAVYYCAARPRWYTYNRQEYDYWGQGTQVTLSS	high polyreactivity
QVQLVESGGGLVQAGGSLRLSCAASGFIFDNNAMGWYRQAPGKERELVATITSGGRTNYADSVKVRFTISRDNAKNTVYLQMNSLKPEDTAVYYCAAGYYLGSRRKTRDYWGQGTQVTVSS	low polyreactivity
QVQLVESGGGLVQAGGSLRLSCSASGITFNANAMGWYRQATGKERELVAAISLSGGRTYYADSVKGRFTISRDNAKNTVYLQMNSLKPEDTAVYYCKVLGNYYGKFDYWGQGTQVTVSS	high polyreactivity
